PMC3860269

Target: in vitro assembled HIV-1 CA–NC complexes bearing the capsid change N74D (HIV-1)
Assay: co-sedimentation

“GFP-Nup98 (from UniProt P52948 1-880) (natural protein)” showed a fold decrease of binding against wild type CA–NC complexes of 2 fold.
